Test results from publication PMC2852523 (The Journal of Membrane Biology, 2010).

T1: Potassium channel KcsA, wild-type (Streptomyces lividans), P0A334
T1 chain: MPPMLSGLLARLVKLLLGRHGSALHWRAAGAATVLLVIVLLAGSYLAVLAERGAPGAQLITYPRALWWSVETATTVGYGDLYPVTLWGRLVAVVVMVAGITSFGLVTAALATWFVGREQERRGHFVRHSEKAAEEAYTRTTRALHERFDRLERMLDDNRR

B1: Potassium channel KcsA, wild-type, P0A334 1-160 (natural protein)
chain: T1 chain
B2: ΔN-KcsA (KcsA lacking the first 18 amino acids, Δ1–18) (domain or fragment, Streptomyces lividans, UniProt P0A334 19-160, looked up)
chain: RHGSALHWRAAGAATVLLVIVLLAGSYLAVLAERGAPGAQLITYPRALWWSVETATTVGYGDLYPVTLWGRLVAVVVMVAGITSFGLVTAALATWFVGREQERRGHFVRHSEKAAEEAYTRTTRALHERFDRLERMLDDNRR

Key:
[1] = target: T1, Potassium channel KcsA, wild-type …; assay: SDS-PAGE; details: remark: other sources report otherwise
[2] = target: the molecule itself; assay: SDS-PAGE

| Binder | stoichiometry N [1] | stoichiometry N [2] |
| --- | --- | --- |
| B1 | 4 |  |
| B2 |  | 4 |
